According to patent US20240116985A1 (published 2024):
Each block holds one binder with its values, some of them ahead of it. Starred links: 1 amine or outer side, 2 acyl side, 3 side chain; linkers in the order of their positions; H or OH if unused. Positions of bridges follow the written chain, without caps; N, C: chain ends. Non-standard residues stand in square brackets, D forms with d. Primed or numbered codes have the meaning given here. *: point of attachment. B5(10) = 2-amino-2-(pent-4-en-1-yl)hept-6-enoic acid, bis(4-pentenyl)glycine, stitching residue bearing both staples, C=CCCCC(CCCC=C)(N[*:1])C(=O)[*:2]; PyrS2(3) = (S)-3-amino-1-((pent-4-en-1-yloxy)carbonyl)pyrrolidine-3-carboxylic acid, stapling residue, C=CCCCOC(=O)N1CC[C@@](N[*:1])(C(=O)[*:2])C1; B5(4) = 2,2-bis(4-pentenyl)glycine = 2-amino-2-(pent-4-en-1-yl)hept-6-enoic acid (stitching residue), C=CCCCC(CCCC=C)(N[*:1])C(=O)[*:2]; B5(5) = 2,2-bis(4-pentenyl)glycine, 2-amino-2-(pent-4-en-1-yl)hept-6-enoic acid (stitching residue), C=CCCCC(CCCC=C)(N[*:1])C(=O)[*:2]; PyrS2 = (S)-3-amino-1-((pent-4-en-1-yloxy)carbonyl)pyrrolidine-3-carboxylic acid, C=CCCCOC(=O)N1CC[C@@](N[*:1])(C(=O)[*:2])C1; Phe(3-COOH) = N[C@@H](Cc1cccc(C(=O)O)c1)C(=O)O; Phe(2-Cl) = N[C@@H](Cc1ccccc1Cl)C(=O)O; Bta = N[C@@H](Cc1csc2ccccc12)C(=O)O; αAllylPro = C=CC[C@@]1(C(=O)O)CCCN1; tBuAla = CC(C)(C)C[C@H](N)C(=O)O; 3Thi = N[C@@H](Cc1ccsc1)C(=O)O; Cha = N[C@@H](CC1CCCCC1)C(=O)O; S8 = C=CCCCCCC[C@](C)(N)C(=O)O; R5 = C=CCCC[C@@](C)(N)C(=O)O; PyrS2(4) = not defined here; Aib = CC(C)(N)C(=O)O; Ms = CS(=O)(=O)*

Columns and labels:
[1] = molecular target: T1, full-length beta-Catenin (Uniprot ID P35222) (Homo sapiens (Human), UniProt P35222 1-781); assay: fluorescence polarization competition against 5FAM-TCF4(10-53) on full-length beta-catenin
T1 construct: also called bCat
T1 sequence: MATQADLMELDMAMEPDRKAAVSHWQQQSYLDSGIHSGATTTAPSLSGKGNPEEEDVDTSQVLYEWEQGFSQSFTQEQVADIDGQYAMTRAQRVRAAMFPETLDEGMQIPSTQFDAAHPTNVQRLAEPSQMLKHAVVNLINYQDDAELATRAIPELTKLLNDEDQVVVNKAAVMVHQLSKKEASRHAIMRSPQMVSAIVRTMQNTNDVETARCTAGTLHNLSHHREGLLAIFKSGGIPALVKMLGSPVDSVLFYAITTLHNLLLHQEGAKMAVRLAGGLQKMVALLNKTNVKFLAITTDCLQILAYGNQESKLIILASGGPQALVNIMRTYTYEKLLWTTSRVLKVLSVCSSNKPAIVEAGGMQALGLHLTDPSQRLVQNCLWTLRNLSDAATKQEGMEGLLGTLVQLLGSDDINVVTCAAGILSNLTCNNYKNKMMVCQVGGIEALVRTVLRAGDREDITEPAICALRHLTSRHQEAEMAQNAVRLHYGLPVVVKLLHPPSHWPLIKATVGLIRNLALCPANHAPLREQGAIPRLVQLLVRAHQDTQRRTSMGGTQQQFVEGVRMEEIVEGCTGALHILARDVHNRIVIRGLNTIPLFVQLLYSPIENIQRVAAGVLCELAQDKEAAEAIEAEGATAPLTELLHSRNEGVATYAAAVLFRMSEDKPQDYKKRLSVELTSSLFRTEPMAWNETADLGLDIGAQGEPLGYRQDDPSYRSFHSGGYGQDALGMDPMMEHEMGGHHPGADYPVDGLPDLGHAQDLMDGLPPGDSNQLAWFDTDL
Method: (§1) The plate was incubated protected from light for 60 minutes at 20° C. prior to read. Reads were performed on a CLARIOstar plate reader (BMG Labtech) in duplicate, and data were fitted to a 1:1 binding model with hill slope using an in-house script. All provided concentrations are final concentrations.

[2] = molecular target: T2, full-length beta-Catenin (Uniprot ID P35222) (Homo sapiens (Human), UniProt P35222 2-781); assay: fluorescence polarization competition, displacement of 5FAM-TCF4 10-53 from full-length beta-catenin
T2 construct: also called bCat; B-Catenin
T2 sequence: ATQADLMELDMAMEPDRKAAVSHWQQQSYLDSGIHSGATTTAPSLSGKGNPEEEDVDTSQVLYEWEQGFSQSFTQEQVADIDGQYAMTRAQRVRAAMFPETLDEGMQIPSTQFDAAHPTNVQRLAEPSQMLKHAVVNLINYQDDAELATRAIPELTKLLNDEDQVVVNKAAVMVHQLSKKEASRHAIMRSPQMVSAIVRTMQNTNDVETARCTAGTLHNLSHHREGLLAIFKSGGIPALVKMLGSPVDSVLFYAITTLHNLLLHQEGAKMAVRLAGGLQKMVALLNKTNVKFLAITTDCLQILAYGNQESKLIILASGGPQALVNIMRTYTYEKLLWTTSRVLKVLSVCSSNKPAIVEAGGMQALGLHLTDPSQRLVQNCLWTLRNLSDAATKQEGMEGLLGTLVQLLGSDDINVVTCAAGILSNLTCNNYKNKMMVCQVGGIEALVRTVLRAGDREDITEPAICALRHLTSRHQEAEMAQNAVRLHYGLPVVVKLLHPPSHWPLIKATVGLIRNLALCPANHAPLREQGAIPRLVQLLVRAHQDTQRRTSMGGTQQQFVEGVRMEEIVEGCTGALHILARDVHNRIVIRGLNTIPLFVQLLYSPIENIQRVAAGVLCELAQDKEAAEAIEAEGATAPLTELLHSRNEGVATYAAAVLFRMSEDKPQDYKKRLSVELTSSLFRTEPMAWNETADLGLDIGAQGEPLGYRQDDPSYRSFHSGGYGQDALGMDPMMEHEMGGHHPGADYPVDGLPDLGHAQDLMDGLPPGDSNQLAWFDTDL
Method: as §1

[3] = molecular target: T3, B-cat-Halo (beta-catenin HaloTag construct transfected into HEK293 cells) (UniProt P35222 1-781); assay: cell-based or functional assay
T3 sequence (looked up): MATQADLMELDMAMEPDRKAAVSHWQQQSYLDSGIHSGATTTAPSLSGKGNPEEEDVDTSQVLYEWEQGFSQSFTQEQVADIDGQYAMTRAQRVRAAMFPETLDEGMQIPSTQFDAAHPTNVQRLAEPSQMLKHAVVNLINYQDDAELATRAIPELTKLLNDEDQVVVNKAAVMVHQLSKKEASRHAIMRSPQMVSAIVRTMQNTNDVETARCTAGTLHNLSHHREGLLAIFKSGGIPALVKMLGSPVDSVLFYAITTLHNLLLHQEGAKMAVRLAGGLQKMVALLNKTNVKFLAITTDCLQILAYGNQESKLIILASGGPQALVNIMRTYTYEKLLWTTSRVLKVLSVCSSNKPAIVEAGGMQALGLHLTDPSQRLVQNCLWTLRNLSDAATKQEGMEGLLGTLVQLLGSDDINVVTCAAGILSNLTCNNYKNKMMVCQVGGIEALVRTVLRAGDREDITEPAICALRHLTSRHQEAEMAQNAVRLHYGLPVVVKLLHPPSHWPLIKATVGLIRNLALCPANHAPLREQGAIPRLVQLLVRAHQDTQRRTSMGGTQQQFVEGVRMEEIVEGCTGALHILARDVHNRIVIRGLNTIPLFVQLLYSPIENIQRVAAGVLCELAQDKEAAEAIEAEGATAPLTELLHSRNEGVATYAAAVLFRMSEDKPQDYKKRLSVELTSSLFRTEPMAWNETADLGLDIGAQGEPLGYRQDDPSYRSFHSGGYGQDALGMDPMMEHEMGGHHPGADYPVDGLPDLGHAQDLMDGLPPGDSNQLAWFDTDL

[4] = molecular target: T4, beta-catenin in DLD1 TCF/LEF luciferase reporter cells (UniProt P35222 1-781); assay: cell-based or functional assay
T4 sequence (looked up): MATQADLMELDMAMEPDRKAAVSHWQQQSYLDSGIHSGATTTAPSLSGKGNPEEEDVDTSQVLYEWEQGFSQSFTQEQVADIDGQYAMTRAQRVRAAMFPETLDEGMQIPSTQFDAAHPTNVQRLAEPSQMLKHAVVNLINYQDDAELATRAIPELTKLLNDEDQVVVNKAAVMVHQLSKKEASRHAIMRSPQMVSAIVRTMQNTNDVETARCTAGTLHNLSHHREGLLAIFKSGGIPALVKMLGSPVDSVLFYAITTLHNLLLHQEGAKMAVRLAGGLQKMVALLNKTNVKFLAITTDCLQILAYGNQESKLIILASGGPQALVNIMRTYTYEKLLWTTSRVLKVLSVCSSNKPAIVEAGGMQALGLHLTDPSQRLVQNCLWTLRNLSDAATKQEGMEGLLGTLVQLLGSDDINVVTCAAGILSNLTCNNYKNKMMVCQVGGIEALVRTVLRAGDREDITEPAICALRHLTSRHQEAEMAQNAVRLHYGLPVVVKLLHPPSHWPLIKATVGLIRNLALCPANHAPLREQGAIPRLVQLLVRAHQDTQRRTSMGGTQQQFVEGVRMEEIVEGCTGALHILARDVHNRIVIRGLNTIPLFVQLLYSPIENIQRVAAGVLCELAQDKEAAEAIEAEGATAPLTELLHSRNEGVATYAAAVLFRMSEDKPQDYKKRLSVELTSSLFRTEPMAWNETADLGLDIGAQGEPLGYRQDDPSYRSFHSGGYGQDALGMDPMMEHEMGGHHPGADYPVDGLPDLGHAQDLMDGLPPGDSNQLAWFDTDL

[5] = molecular target: T5, full-length beta-Catenin (Uniprot ID P35222) (Homo sapiens (Human), UniProt P35222 2-781); assay: fluorescence polarization competition; full-length beta-catenin + 5FAM-TCF4(10-53) probe; peptide titrated
T5 construct: The fluorescence polarization protocol says only 'full-length'; also called bCat; B-Catenin
T5 sequence: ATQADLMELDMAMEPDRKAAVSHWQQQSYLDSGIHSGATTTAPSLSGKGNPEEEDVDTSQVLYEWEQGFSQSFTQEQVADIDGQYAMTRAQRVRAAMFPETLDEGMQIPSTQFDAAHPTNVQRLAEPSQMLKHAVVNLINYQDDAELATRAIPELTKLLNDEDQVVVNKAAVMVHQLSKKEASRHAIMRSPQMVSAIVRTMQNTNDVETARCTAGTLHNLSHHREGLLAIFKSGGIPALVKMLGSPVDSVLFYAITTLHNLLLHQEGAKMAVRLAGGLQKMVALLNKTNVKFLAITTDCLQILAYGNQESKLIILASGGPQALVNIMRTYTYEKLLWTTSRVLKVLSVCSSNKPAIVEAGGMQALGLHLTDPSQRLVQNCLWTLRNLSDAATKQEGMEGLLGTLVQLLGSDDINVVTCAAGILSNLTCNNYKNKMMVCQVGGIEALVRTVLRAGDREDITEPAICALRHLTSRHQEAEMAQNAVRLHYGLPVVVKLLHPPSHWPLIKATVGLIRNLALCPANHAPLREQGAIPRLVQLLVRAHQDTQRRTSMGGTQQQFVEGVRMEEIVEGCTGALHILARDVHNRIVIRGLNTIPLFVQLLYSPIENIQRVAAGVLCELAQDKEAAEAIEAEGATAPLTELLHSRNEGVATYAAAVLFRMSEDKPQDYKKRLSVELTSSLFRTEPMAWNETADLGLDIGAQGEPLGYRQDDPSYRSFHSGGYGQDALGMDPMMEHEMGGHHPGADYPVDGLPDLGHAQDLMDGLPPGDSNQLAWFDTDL
Method: as §1

B2: I-1184 (peptide)
peptide: Ac-PD[Cha][R5]DDAAFT[PyrS2(3)][Phe(2-Cl)][Bta]S-NH2
modifications: staple 4-11
notes: Stapled peptide, one staple
IC50 [2]: 176 nM

B4: I-711 (peptide)
peptide: Ms-[αAllylPro]DI[B5(5)]DEAAFQ[S8]F[Bta]Q-NH2
modifications: staple 1-4, 4-11
notes: Stapled peptide composition; Later-eluting HPLC isomer peak (I-710 is the earlier one); also called MeSO2-PL3-Asp-Ile-B5-Asp-Glu-Ala-Ala-Phe-Gln-S8-Phe-BztA-Gln-NH2
EC50 [5]: 88 nM

The remaining lines, values ahead:

IC50 [1]: 10 µM
B1: I-1286 (peptide)
peptide: Ac-[αAllylPro]NA[B5(10)]DTAAFL[PyrS2]F[Bta]Q-NH2
modifications: staple 1-4, 4-11; not fully specified; printed as Ac-PL3-Asn-Ala-B5-Asp-Thr-Ala-Ala-Phe-Leu-PyrS2-Phe-BztA-Gln-NH2
notes: Stapled peptide

NanoBRET Abs IC50 [3]: 3.1 µM | DLD1 4% Abs IC50 [4]: 1.2 µM
B3: I-1920 (peptide)
peptide: Ac-[αAllylPro]D[tBuAla][B5(4)]D[Phe(3-COOH)][Aib]AFL[PyrS2(4)][3Thi][Bta]A-NH2
modifications: staple 1-4, 4-11; not fully specified; printed as Ac-PL3-Asp-Npg-B5-Asp-3COOHF-Aib-Ala-Phe-Leu-PyrS2-3Thi-BztA-Ala-NH2; reading uncertain
